{"source": "paper doi:10.1101/2023.08.10.552813", "about": "(2023)", "binders": {"B1": {"name": "HpARI-LD (full-length HpARI with residues 180-188 of the CCP3 loop deleted) (natural protein)", "chain": "AGQRCRFTDVERDKGYTGMLLKGRLRKTAGNGRTVELICGRGNHNYTCESGVLKESSPRQARCGCKGILEMLFDMPKEERPSPMYDSVTYDPTPNTPTTVGKDGIWNGVDYRNGSTVKPYCDTGPVINGSSKAVCVSGKWVPTLGVCPKMCSIGSLKENGKFVDVTATTKGDELNPPPRKVDKDKVQHGVKVVALCKAEDSTTAAEGVQEFECDNGKWKPEPVPCP", "modifications": "biotinylated with EZ-Link Sulfo-NHS-Biotin where immobilised for SPR"}, "B2": {"name": "HpARI_CCP1/2 (HpARI with CCP3 truncated) (domain or fragment)", "chain": "AGQRCRFTDVERDKGYTGMLLKGRLRKTAGNGRTVELICGRGNHNYTCESGVLKESSPRQARCGCKGILEMLFDMPKEERPSPMYDSVTYDPTPNTPTTVGKDGIWNGVDYRNGSTVKPYCDTGPVINGSSKAVCVSGKWVPTLGVCPK", "modifications": "biotinylated with EZ-Link Sulfo-NHS-Biotin where immobilised for SPR"}, "B3": {"name": "Heligmosomoides polygyrus Alarmin Release Inhibitor (HpARI), full-length (natural protein)", "chain": "AGQRCRFTDVERDKGYTGMLLKGRLRKTAGNGRTVELICGRGNHNYTCESGVLKESSPRQARCGCKGILEMLFDMPKEERPSPMYDSVTYDPTPNTPTTVGKDGIWNGVDYRNGSTVKPYCDTGPVINGSSKAVCVSGKWVPTLGVCPKMCSIGSLKENGKFVDVTATTKGDELNPPPREQTLIPIVRKVDKDKVQHGVKVVALCKAEDSTTAAEGVQEFECDNGKWKPEPVPCP", "modifications": "biotinylated with EZ-Link Sulfo-NHS-Biotin where immobilised for SPR"}, "B4": {"name": "mouse Interleukin 33 (residues 112-270) (ligand)", "chain": "SIQGTSLLTQSPASLSTYNDQSVSFVLENGCYVINVDDSGKDQEQDQVLLRYYESPCPASQSGDGVDGKKVMVNMSPIKDTDIWLHANDKDYSVELQRGDVSPPEQAFFVLHKKSSDFVSFECKNLPGTYIGVKDNQLALVEEKDESCNNIMFKLSKI"}}, "assay_in_all_cases": "SPR", "key": {"[1]": {"molecular_target": "B4"}, "[2]": {"molecular_target": "B4"}, "[3]": {"molecular_target": "T1, HpARI point mutant of residue W107 (Heligmosomoides polygyrus bakeri, biotinylated with EZ-Link Sulfo-NHS-Biotin where immobilised for SPR)"}, "[4]": {"molecular_target": "T2, HpARI point mutant of residue Y112 (Heligmosomoides polygyrus bakeri, biotinylated with EZ-Link Sulfo-NHS-Biotin where immobilised for SPR)"}, "[5]": {"molecular_target": "T3, HpARI point mutant of residue E70 (Heligmosomoides polygyrus bakeri, biotinylated with EZ-Link Sulfo-NHS-Biotin where immobilised for SPR)"}, "[6]": {"molecular_target": "T1, HpARI point mutant of residue W107", "remark": "listed apart in the source"}, "[7]": {"molecular_target": "T2, HpARI point mutant of residue Y112", "remark": "listed apart in the source"}, "[8]": {"molecular_target": "T3, HpARI point mutant of residue E70", "remark": "listed apart in the source"}, "[9]": {"molecular_target": "T4, HpARI-N152 (HpARI with an N-linked glycan inserted at residue 152, interface A) (Heligmosomoides polygyrus bakeri, N-linked glycan at residue 152)"}, "[10]": {"molecular_target": "T4, HpARI-N152 (HpARI with an N-linked …)", "remark": "listed apart in the source"}}, "note": "Like-named read-outs stand apart in the source and are kept apart here."}
{"binder": "B1", "values": [{"measurement": "Kd", "setting": "[1]", "value": 4.53, "unit": "nM"}, {"measurement": "koff", "setting": "[2]", "value": 0.00296, "unit": "s⁻¹"}]}
{"binder": "B2", "values": [{"measurement": "koff", "setting": "[2]", "value": 0.00201, "unit": "s⁻¹"}]}
{"binder": "B3", "values": [{"measurement": "koff", "setting": "[2]", "value": "4.51e-05", "unit": "s⁻¹"}]}
{"binder": "B4", "values": [{"measurement": "Kd", "setting": "[3]", "value": 1.18, "unit": "nM"}, {"measurement": "koff", "setting": "[3]", "value": 0.000162, "unit": "s⁻¹"}, {"measurement": "Kd", "setting": "[4]", "value": 0.528, "unit": "nM"}, {"measurement": "koff", "setting": "[4]", "value": "9.33e-05", "unit": "s⁻¹"}, {"measurement": "Kd", "setting": "[5]", "value": 0.31, "unit": "nM"}, {"measurement": "koff", "setting": "[5]", "value": "9.89e-05", "unit": "s⁻¹"}, {"measurement": "Kd", "setting": "[6]", "value": "~1.2", "unit": "nM"}, {"measurement": "Kd", "setting": "[7]", "value": "~0.5", "unit": "nM"}, {"measurement": "Kd", "setting": "[8]", "value": "~0.3", "unit": "nM"}, {"measurement": "Kd", "setting": "[9]", "value": 0.0474, "unit": "nM"}, {"measurement": "koff", "setting": "[10]", "value": "6.12e-05", "unit": "s⁻¹"}]}
